{"source": "patent US20140369997A1", "about": "“Pharmaceutical composition for a foaming eye drop” (PASE, priority 2011, published 2014)", "test": "Foaming of eye drop solution containing a foaming agent mixed with gas", "format": "physicochemical", "excerpt": "The preferred embodiment is a solution containing between 0.25%-5% of hydroxypropyl methylcellulose. This has been proven to produce a foam that is capable of holding enough gas to result in a 90% reduction in volume of the medication distributed in a drop. In other words the foam that is created is 90% gas and 10% liquid. The addition of hydroxypropyl methylcellulose is one of many ways that the pharmaceutical composition of the eye medication can be changed.\nAny preferred additive should have properties similar to hydroxypropyl methylcellulose such that a large reduction in volume of liquid from the foamed form to the liquid form is obtained. The additive should be chosen to reduce the risk of eye irritation and to minimize any potential binding of the active ingredient. Hydroxypropyl methylcellulose is especially preferred because it is already known to be a safe ingredient to be applied to the eye as it is currently used in many eye drops to lubricate the eye. It also produces a more viscous solution which increases the retention time in the eye, thus giving the medication more time to be absorbed.", "data": [{"substance": "albumin", "values": [{"measurement": "consistency of foam produced", "setting": "albumin concentration between 1%-25%", "result": "foam of the desired consistency"}, {"measurement": "foaming agent quality", "setting": "tested as foaming agent", "result": "excellent foaming agent"}]}]}
